Results reported in publication PMC8416091.

Assays:
[1] = confocal imaging of Flag tag, transfected NIH-3T3 cells; conditions: glycan lost; control: wild-type Tlr2-Flag
[2] = confocal immunofluorescence of Tlr2, RAW264.7 cells; conditions: control: untreated RAW264.7 cells

| Protein | localisation_or_trafficking ([2]; glycan changed form) | further results |
| --- | --- | --- |
| Tlr2: N414Q/N442Q (protein) parent chain: MLRALWLFWILVAITVLFSKRCSAQESLSCDASGVCDGRSRSFTSIPSGLTAAMKSLDLSFNKITYIGHGDLRACANLQVLILKSSRINTIEGDAFYSLGSLEHLDLSDNHLSSLSSSWFGPLSSLKYLNLMGNPYQTLGVTSLFPNLTNLQTLRIGNVETFSEIRRIDFAGLTSLNELEIKALSLRNYQSQSLKSIRDIHHLTLHLSESAFLLEIFADILSSVRYLELRDTNLARFQFSPLPVDEVSSPMKKLAFRGSVLTDESFNELLKLLRYILELSEVEFDDCTLNGLGDFNPSESDVVSELGKVETVTIRRLHIPQFYLFYDLSTVYSLLEKVKRITVENSKVFLVPCSFSQHLKSLEFLDLSENLMVEEYLKNSACKGAWPSLQTLVLSQNHLRSMQKTGEILLTLKNLTSLDISRNTFHPMPDSCQWPEKMRFLNLSSTGIRVVKTCIPQTLEVLDVSNNNLDSFSLFLPRLQELYISRNKLKTLPDASLFPVLLVMKIRENAVSTFSKDQLGSFPKLETLEAGDNHFVCSCELLSFTMETPALAQILVDWPDSYLCDSPPRLHGHRLQDARPSVLECHQAALVSGVCCALLLLILLVGALCHHFHGLWYLRMMWAWLQAKRKPKKAPCRDVCYDAFVSYSEQDSHWVENLMVQQLENSDPPFKLCLHKRDFVPGKWIIDNIIDSIEKSHKTVFVLSENFVRSEWCKYELDFSHFRLFDENNDAAILVLLEPIERKAIPQRFCKLRKIMNTKTYLEWPLDEGQQEVFWVNLRTAIKS | – | localisation_or_trafficking [1]: decreases |
| Tlr2: kifunensine (protein) parent chain: MLRALWLFWILVAITVLFSKRCSAQESLSCDASGVCDGRSRSFTSIPSGLTAAMKSLDLSFNKITYIGHGDLRACANLQVLILKSSRINTIEGDAFYSLGSLEHLDLSDNHLSSLSSSWFGPLSSLKYLNLMGNPYQTLGVTSLFPNLTNLQTLRIGNVETFSEIRRIDFAGLTSLNELEIKALSLRNYQSQSLKSIRDIHHLTLHLSESAFLLEIFADILSSVRYLELRDTNLARFQFSPLPVDEVSSPMKKLAFRGSVLTDESFNELLKLLRYILELSEVEFDDCTLNGLGDFNPSESDVVSELGKVETVTIRRLHIPQFYLFYDLSTVYSLLEKVKRITVENSKVFLVPCSFSQHLKSLEFLDLSENLMVEEYLKNSACKGAWPSLQTLVLSQNHLRSMQKTGEILLTLKNLTSLDISRNTFHPMPDSCQWPEKMRFLNLSSTGIRVVKTCIPQTLEVLDVSNNNLDSFSLFLPRLQELYISRNKLKTLPDASLFPVLLVMKIRENAVSTFSKDQLGSFPKLETLEAGDNHFVCSCELLSFTMETPALAQILVDWPDSYLCDSPPRLHGHRLQDARPSVLECHQAALVSGVCCALLLLILLVGALCHHFHGLWYLRMMWAWLQAKRKPKKAPCRDVCYDAFVSYSEQDSHWVENLMVQQLENSDPPFKLCLHKRDFVPGKWIIDNIIDSIEKSHKTVFVLSENFVRSEWCKYELDFSHFRLFDENNDAAILVLLEPIERKAIPQRFCKLRKIMNTKTYLEWPLDEGQQEVFWVNLRTAIKS | changes | – |
| Tlr2: swainsonine (protein) parent chain: MLRALWLFWILVAITVLFSKRCSAQESLSCDASGVCDGRSRSFTSIPSGLTAAMKSLDLSFNKITYIGHGDLRACANLQVLILKSSRINTIEGDAFYSLGSLEHLDLSDNHLSSLSSSWFGPLSSLKYLNLMGNPYQTLGVTSLFPNLTNLQTLRIGNVETFSEIRRIDFAGLTSLNELEIKALSLRNYQSQSLKSIRDIHHLTLHLSESAFLLEIFADILSSVRYLELRDTNLARFQFSPLPVDEVSSPMKKLAFRGSVLTDESFNELLKLLRYILELSEVEFDDCTLNGLGDFNPSESDVVSELGKVETVTIRRLHIPQFYLFYDLSTVYSLLEKVKRITVENSKVFLVPCSFSQHLKSLEFLDLSENLMVEEYLKNSACKGAWPSLQTLVLSQNHLRSMQKTGEILLTLKNLTSLDISRNTFHPMPDSCQWPEKMRFLNLSSTGIRVVKTCIPQTLEVLDVSNNNLDSFSLFLPRLQELYISRNKLKTLPDASLFPVLLVMKIRENAVSTFSKDQLGSFPKLETLEAGDNHFVCSCELLSFTMETPALAQILVDWPDSYLCDSPPRLHGHRLQDARPSVLECHQAALVSGVCCALLLLILLVGALCHHFHGLWYLRMMWAWLQAKRKPKKAPCRDVCYDAFVSYSEQDSHWVENLMVQQLENSDPPFKLCLHKRDFVPGKWIIDNIIDSIEKSHKTVFVLSENFVRSEWCKYELDFSHFRLFDENNDAAILVLLEPIERKAIPQRFCKLRKIMNTKTYLEWPLDEGQQEVFWVNLRTAIKS | changes | – |
| Tlr2: tunicamycin (protein) parent chain: MLRALWLFWILVAITVLFSKRCSAQESLSCDASGVCDGRSRSFTSIPSGLTAAMKSLDLSFNKITYIGHGDLRACANLQVLILKSSRINTIEGDAFYSLGSLEHLDLSDNHLSSLSSSWFGPLSSLKYLNLMGNPYQTLGVTSLFPNLTNLQTLRIGNVETFSEIRRIDFAGLTSLNELEIKALSLRNYQSQSLKSIRDIHHLTLHLSESAFLLEIFADILSSVRYLELRDTNLARFQFSPLPVDEVSSPMKKLAFRGSVLTDESFNELLKLLRYILELSEVEFDDCTLNGLGDFNPSESDVVSELGKVETVTIRRLHIPQFYLFYDLSTVYSLLEKVKRITVENSKVFLVPCSFSQHLKSLEFLDLSENLMVEEYLKNSACKGAWPSLQTLVLSQNHLRSMQKTGEILLTLKNLTSLDISRNTFHPMPDSCQWPEKMRFLNLSSTGIRVVKTCIPQTLEVLDVSNNNLDSFSLFLPRLQELYISRNKLKTLPDASLFPVLLVMKIRENAVSTFSKDQLGSFPKLETLEAGDNHFVCSCELLSFTMETPALAQILVDWPDSYLCDSPPRLHGHRLQDARPSVLECHQAALVSGVCCALLLLILLVGALCHHFHGLWYLRMMWAWLQAKRKPKKAPCRDVCYDAFVSYSEQDSHWVENLMVQQLENSDPPFKLCLHKRDFVPGKWIIDNIIDSIEKSHKTVFVLSENFVRSEWCKYELDFSHFRLFDENNDAAILVLLEPIERKAIPQRFCKLRKIMNTKTYLEWPLDEGQQEVFWVNLRTAIKS | – | localisation_or_trafficking ([2]; glycan lost): decreases |
